Key:
Experiment in all cases: EMSA
[1] = molecular target: NS1 (89-237) effector domain;eIF4E;eIF4G1 (88-653) (Influenza A virus (H3N2);human;human, UniProt P03495;P06730;Q04637 89-237;1-217;88-653, ||)
[2] = molecular target: NS1 (89-237) effector domain (Influenza A virus (H3N2), UniProt P03495 89-237)
eIF4E;eIF4G1 (88-653) = eIF4E;eIF4G1 (88-653) (human;human, UniProt P06730;Q04637 1-217;88-653, |)
Chain of eIF4E;eIF4G1 (88-653) (P06730 whole entry, chain 1 of 2): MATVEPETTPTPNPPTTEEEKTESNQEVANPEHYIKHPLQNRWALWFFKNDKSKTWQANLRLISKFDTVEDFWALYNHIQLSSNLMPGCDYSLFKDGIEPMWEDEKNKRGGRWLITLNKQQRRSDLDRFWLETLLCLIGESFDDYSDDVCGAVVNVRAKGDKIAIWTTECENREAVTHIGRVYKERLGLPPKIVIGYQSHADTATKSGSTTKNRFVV
Chain of eIF4E;eIF4G1 (88-653) (Q04637 88-653, chain 2 of 2): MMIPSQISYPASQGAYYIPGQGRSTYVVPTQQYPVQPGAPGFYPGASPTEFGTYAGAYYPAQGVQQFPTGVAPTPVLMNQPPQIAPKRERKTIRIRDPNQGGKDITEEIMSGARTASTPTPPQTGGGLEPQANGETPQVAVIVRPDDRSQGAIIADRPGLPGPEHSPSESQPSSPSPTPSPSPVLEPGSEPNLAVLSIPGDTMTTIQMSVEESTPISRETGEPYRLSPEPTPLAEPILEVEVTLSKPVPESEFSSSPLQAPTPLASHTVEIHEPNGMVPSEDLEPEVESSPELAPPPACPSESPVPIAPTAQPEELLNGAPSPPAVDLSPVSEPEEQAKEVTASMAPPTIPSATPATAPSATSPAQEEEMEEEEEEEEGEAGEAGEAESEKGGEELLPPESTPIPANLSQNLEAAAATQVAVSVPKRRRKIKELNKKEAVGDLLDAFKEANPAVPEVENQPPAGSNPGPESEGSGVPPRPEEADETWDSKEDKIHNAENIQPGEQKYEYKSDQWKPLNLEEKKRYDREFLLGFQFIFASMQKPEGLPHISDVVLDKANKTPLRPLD

Chain of NS1 (89-237) effector domain (P03495 89-237): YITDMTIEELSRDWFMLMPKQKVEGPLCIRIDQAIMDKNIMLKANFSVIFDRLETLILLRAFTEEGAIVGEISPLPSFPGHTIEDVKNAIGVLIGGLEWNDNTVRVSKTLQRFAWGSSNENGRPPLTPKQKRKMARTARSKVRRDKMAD
Chain of NS1 (89-237) effector domain;eIF4E;eIF4G1 (88-653) (P03495 89-237, chain 1 of 3): as the sequence (P03495 89-237) above
Chain of NS1 (89-237) effector domain;eIF4E;eIF4G1 (88-653) (P06730 whole entry, chain 2 of 3, the tested form may be a part): as the sequence (P06730 whole entry, chain 1 of 2) above
Chain of NS1 (89-237) effector domain;eIF4E;eIF4G1 (88-653) (Q04637 88-653, chain 3 of 3): as the sequence (Q04637 88-653, chain 2 of 2) above

B1: 5'-m7G-mRNA (ssRNA)
RNA: GGGUGACAGUCCUGUUU
modifications: 5' m7G cap (vaccinia capping)
B1: binds [1]; no binding [2]; binds (eIF4E;eIF4G1 (88-653)).

Reference: publication PMC10164398
